Data published in patent US20260008817A1, “CYCLIC PEPTIDE OR SALT THEREOF, AND USES THEREOF” (FUJIFILM Corporation, priority 2023, published 2026).

Assays:
Type in all cases: binding
Settings in all cases: 1 μmol/L FGFR, 25° C.
[1] = biological target: T1, FGFR4 Protein, Human, Recombinant (His Tag) (Homo sapiens, UniProt P22455); experiment: SPR FGFR versatility, FGFR4 on immobilized cyclic peptide
T1 construct: His tag; purchased Sino Biological 10538-H08H
T1 sequence (P22455 22-369 limits assumed): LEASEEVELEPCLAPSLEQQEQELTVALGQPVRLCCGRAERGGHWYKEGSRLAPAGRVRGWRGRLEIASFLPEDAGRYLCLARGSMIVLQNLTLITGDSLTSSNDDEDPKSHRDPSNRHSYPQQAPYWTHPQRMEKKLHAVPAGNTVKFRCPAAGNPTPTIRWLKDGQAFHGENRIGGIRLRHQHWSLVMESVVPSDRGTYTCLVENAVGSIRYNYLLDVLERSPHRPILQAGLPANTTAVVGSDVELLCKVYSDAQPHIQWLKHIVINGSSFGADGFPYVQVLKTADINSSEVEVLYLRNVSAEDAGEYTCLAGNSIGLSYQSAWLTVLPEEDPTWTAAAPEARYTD
Method: (§1) The binding of the cyclic peptide to various types of FGFRs was evaluated using a surface plasmon resonance (SPR) method.
(§2) The binding affinity of the chemically synthesized cyclic peptide to FGFR was evaluated by the following procedure.
(§3) A CM5 sensor chip (Cytiva, 29149603) was set in Biacore-T200 (manufactured by Cytiva) which is a surface plasmon resonance device, and an HBS-EP buffer (Cytiva, BR100826) was added as a running buffer at a flow rate of 10 μL/min to equilibrate the flow channel. Next, 70 μL of a mixed aqueous solution of 0.2 mol/L 1-(3-dimethylaminopropyl)-3-ethylcarbodiimide (EDC) and 0.05 mol/L N-hydroxysuccinimide (NHS) was added to activate the sensor chip. Then, a cyclic peptide prepared to 2 mg/mL in HBS-EP buffer was added thereto to perform immobilization at about 200 RU. […]
(§4) After various FGFRs (FGFR1 Protein, Human, Recombinant (His Tag) (Sino Biological, 10616-H08H), FGFR3 Protein, Human, Recombinant (ECD, His Tag) (Sino Biological, 16044-H08H), FGFR4 Protein, Human, Recombinant (His Tag) (Sino Biological, 10538-H08H)) diluted with HBS-EP to 1 μmol/L at 25° C. was added to each flow channel of the cyclic peptide-immobilized sensor chip prepared above, for 10 minutes, HBS-EP was allowed to flow as a running buffer for 30 minutes, and the binding of various FGFRs to the cyclic peptide was measured. […]

[2] = biological target: T2, FGFR3 Protein, Human, Recombinant (ECD, His Tag) (Homo sapiens, UniProt P22607); experiment: SPR FGFR versatility, FGFR3 on immobilized cyclic peptide
T2 construct: FGFR3 Protein, Human, Recombinant (ECD, His Tag); His tag; purchased Sino Biological 16044-H08H
T2 sequence (P22607 23-375 limits assumed): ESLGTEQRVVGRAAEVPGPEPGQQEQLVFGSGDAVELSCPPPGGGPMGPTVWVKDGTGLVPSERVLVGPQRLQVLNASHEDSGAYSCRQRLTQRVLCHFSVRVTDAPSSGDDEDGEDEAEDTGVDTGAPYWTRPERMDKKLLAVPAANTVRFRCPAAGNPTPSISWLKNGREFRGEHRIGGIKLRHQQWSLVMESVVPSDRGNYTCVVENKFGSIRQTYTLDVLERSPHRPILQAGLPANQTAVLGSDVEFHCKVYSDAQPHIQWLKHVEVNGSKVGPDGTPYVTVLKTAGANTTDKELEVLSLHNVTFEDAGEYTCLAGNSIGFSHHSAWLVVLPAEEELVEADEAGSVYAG
Method: as §1, §2, §3, §4

[3] = biological target: T3, FGFR1 Protein, Human, Recombinant (His Tag) (Homo sapiens, UniProt P11362); experiment: SPR FGFR versatility, FGFR1 on immobilized cyclic peptide
T3 construct: His tag; purchased Sino Biological 10616-H08H
T3 sequence (P11362 22-285 isoform P11362-14 limits assumed): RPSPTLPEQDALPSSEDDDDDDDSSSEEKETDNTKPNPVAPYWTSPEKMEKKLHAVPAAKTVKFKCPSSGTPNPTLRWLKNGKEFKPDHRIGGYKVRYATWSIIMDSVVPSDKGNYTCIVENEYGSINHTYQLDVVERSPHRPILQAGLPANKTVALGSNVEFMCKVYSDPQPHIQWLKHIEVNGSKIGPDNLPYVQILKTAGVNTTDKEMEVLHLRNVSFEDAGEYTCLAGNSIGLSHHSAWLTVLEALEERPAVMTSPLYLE
Method: as §1, §2, §3, §4

Substance: 335 (ACVWTFDRHAQEISQALHKVKKK; not fully specified; Description of Artificial Sequence: Cyclic peptide) [compound 335]
- Evaluation result of binding affinity to FGFR4 [1]: A (The binding amount is 0.05 molecules of FGFR/one molecule of the cyclic peptide or more.)
- Evaluation result of binding affinity to FGFR3 [2]: B (The binding amount is 0.01 molecules of FGFR/one molecule of the cyclic peptide or more and less than 0.05 molecules of FGFR/one molecule of the cyclic peptide.)
- Evaluation result of binding affinity to FGFR1 [3]: A (The binding amount is 0.05 molecules of FGFR/one molecule of the cyclic peptide or more.)
